Laboratory results as given in US20220395548A1 (MOREHOUSE SCHOOL OF MEDICINE, published 2022).

Assays:
[1] = molecular target: T1, purified HIV-1 gp120 (gp120-IIIB, Immuno Dx) (HIV-1 (IIIB), UniProt P04578 33-511); experiment: SPR (Biacore T200), gp120 amine-coupled to CM5 chip, MoMo30 flowed over; 1:1 model fit; three independent measurements in triplicate
T1 construct: domain: gp120; also called HIV gp120; purified gp120

[2] = molecular target: gp120 of HIV-1NL4-3 (on virus particles) (HIV-1 (NL4-3)); experiment: cell-based or functional assay

B1: MoMo30 protein from Momordica balsamina (purified from leaf extract, 30 kDa cutoff retentate) (other)
chain: GGIATYWGQDTREGRLTAACATGKFQIINIGFLSTFGNGRPPQVNLTRHCSPISNGCRNVSVGVLNCRNDGVKVMLSIGGPHGSYSLSSAAEAIDLADYIWNNFLGGRSTSLRPFGDVPLDGVDFRIERGQFSHYYTMVARRLHDYGRQCSRKVYLTAAPGCRFPDKYLTELLHTGLFDYVWVRFFDDRQCQYNSVNPSGFWWSWMRWINSIPARKFYVGIPASEEAGDGYVAPEVLIKEVLPFTKKFTNYGGVMLFDLSNDVQTNYSSIISNRV
notes: also called 30 kDa MoMo protein; hevamine A-related MoMo30 protein
Question: With B1 as the binder, how does the Kd [1] read?
Answer: 6 µM

Question: What about the koff [1] of the same binder?
Answer: 0.00242 s⁻¹

Question: What about the kon [1] of the same binder?
Answer: 400 M⁻¹ s⁻¹

Question: And the “IC50 of inhibition of HIV-1NL4-3 infectivity, MAGI cell assay” value [2]?
Answer: 0.0028 µM
